Results on one substance are retold here after doi:10.1101/2022.03.05.483071.

The target in this assay is KIF5A ΔExon27-GFP (human) (UniProt Q12840). Kind of assay: single-molecule TIRF microscopy, fluorescence intensity of moving spots.

Turning to “KIF5A ΔExon27-GFP (from UniProt Q12840 1-998) (natural protein)”, the percent of moving spots that are a single dimer was determined as 25%.
